Data on six molecules can be found in patent US20230183373A1 (MINERVA BIOTECHNOLOGIES, published 2023).

The chains are these.
B5: PSMGFR minus 10 amino acids from the C-terminus (peptide)
peptide: GTINVHDVETQFNQYKTEAASRYNLTISDVSVSDV
notes: also called C-10; C-10 PSMGFR

Experiment [1] has as its target T1, PSMGFR peptide (Primary Sequence of the MUC1 Growth Factor Receptor).
T1 construct: Synthetic peptide; also called MUC1* peptide; MUC1* PSMGFR peptide
T1 peptide: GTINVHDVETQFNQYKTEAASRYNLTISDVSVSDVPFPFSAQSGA
Briefly: ELISA on PSMGFR (FIG. 21A).

The target of experiment [2] is T1, PSMGFR peptide (Primary Sequence of the …). Briefly: ELISA, surface coated with PSMGFR peptide (FIG. 5).
Experiment [3] concerns the target B5. As to the kind of experiment: ELISA on immobilised N-10 and C-10 peptides (FIG. 2E).
For experiment [4], the target named is T1, PSMGFR peptide (Primary Sequence of the …). As to the kind of experiment: ELISA on immobilised PSMGFR, N-10 and C-10 (FIG. 22A).
For experiment [5] the target is unchanged. As to the kind of experiment: ELISA on immobilised PSMGFR (FIG. 2C).
The target in experiment [6] is T2, PSMGFR minus 10 amino acids from the N-terminus.
T2 construct: also called N-10; N-10 PSMGFR
T2 peptide: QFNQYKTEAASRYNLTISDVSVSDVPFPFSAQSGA
As to the kind of experiment: selection screens (FIG. 3A-C cited).

In another experiment the target is T3, NME7-AB (human, UniProt Q9Y5B8 92-376, limits assumed).
T3 construct: also called NM23-H7
T3 sequence: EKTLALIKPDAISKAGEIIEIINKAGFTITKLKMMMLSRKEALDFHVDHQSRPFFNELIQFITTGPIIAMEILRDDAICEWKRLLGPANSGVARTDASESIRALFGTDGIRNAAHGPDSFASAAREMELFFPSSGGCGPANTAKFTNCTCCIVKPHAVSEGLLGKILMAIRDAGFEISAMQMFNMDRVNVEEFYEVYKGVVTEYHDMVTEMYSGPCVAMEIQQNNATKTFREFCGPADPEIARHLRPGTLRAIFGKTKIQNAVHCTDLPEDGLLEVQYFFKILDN
Briefly: ELISA on immobilised C-10 peptide (FIG. 2A).

For another experiment, the target named is T4, dimeric NME1 (human, UniProt P15531 1-152, limits assumed).
T4 construct: Used in dimer form; also called NM23-H1 dimers; dimeric NM23-H1
Briefly: ELISA on immobilised C-10 peptide (FIG. 2D).

Experiment [7] has as its target T1, PSMGFR peptide (Primary Sequence of the …). Briefly: ELISA on immobilised PSMGFR (FIG. 2B).

T4 sequence (P15531 whole entry): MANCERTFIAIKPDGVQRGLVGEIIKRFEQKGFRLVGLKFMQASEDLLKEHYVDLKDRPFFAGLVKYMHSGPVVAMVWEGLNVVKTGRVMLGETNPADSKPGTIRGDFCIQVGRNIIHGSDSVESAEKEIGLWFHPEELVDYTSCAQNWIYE

B1: hu MN-E6 scFv-Fc-Y407R-hingeless (Fc fusion)
chain: AAQPAEVQLVESGGGLVKPGGSLRLSCAASGFTFSRYGMSWVRQAPGKRLEWVSTISGGGTYIYYPDSVKGRFTISRDNAKNTLYLQMNSLRAEDTAVYYCTRDNYGRNYDYGMDYWGQGTLVTVSSGGGGSGGGGSGGGGSEIVLTQSPATLSLSPGERATLTCSATSSVSYIHWYQQRPGQSPRLLIYSTSNLASGIPARFSGSGSGSDYTLTISSLEPEDFAVYYCQQRSSSPFTFGSGTKVEIKAPELLGGPSVFLFPPKPKDTLMISRTPEVTCVVVDVSHEDPEVKFNWYVDGVEVHNAKTKPREEQYNSTYRVVSVLTVLHQDWLNGKEYKCKVSNKALPAPIEKTISKAKGQPREPQVYTLPPSREEMTKNQVSLTCLVKGFYPSDIAVEWESNGQPENNYKTTPPVLDSDGSFFLRSKLTVDKSRWQQGNVFSCSVMHEALHNHYTQKSLSLSPGK
notes: The construct derives from the pSECTag2 E6 scFv-Fc, so it carries the leader and AAQPA before the scFv; also called MN-E6 scFv-Fc with deleted hinge and Y407R
With B1, in experiment [1], the binding result was “binds”.

B2: humanized MN-C2 scFv (scFv, V domains shown)
VH: EVQLVESGGGLVKPGGSLRLSCAASGFTFSGYAMSWVRQAPGKGLEWVSTISSGGTYIYYPDSVKGRFTISRDNAKNSLYLQMNSLRAEDTAVYYCARLGGDNYYEYFDVWGKGTTVTVSS
VL: DIVLTQSPASLAVSPGQRATITCRASKSVSTSGYSYMHWYQQKPGQPPKLLIYLASNLESGVPARFSGSGSGTDFTLTINPVEANDTANYYCQHSRELPFTFGGGTKVEIKR
notes: also called huMN-C2 scFv; hu MN-C2 scFv; not shown: Linker; which one was te; 6xHis tag (detected with Anti-Penta-His)
In the case of B2, the EC50 in [2] was roughly 333 nM.

B3: mouse monoclonal antibody MN-C3 (antibody, V domains shown)
VH: QVQLQQSGPELVRPGVSVKISCKGSGYRFTDYAMNWVKQSHAKSLEWIGVISTFSGNTNFNQKFKGKATMTVDKSSSTAYMELARLTSEDSAMYYCARSDYYGPYFDYWGQGTTLTVSS
VL: DVLMTQTPLSLPVSLGDQASISCRSSQTIVHSNGNTYLEWYLQKPGQSPKLLIYKVSNRFSGVPDRFSGSGSGTDFTLKINRVEAEDLGVYYCFQGSHVPFTFGSGTKLEIK
notes: Mouse monoclonal IgG
B3: the binding result in experiment [3] and in [4] was “binds” each time.

B4: mouse monoclonal antibody MN-E6 (antibody, V domains shown)
VH: EVKVVESGGDLVKPGGSLKLSCVVSGFTFSRYGMSWVRQTPGKRLEWVATISGGGTYIYYPDSVKGRFTISRDNAKNTLYLQMSSLKSEDTAMYHCTRDNYGRNYDYGMDYWGQGTSVTVSS
VL: QIVLTQSPAIMSASPGEEVTLTCSATSSVSYIHWFQQRPGTSPKLWIYSTSNLASGVPVRFSGSGYGTSYSLTISRMEAEDAATYYCQQRSSSPFTFGSGTKLEIK
notes: Mouse monoclonal IgG; the constant regions are not; also called parent mouse MN-E6 antibody
With B4, the binding result in experiment [5] and in experiment [6] was “binds” in each case.
Take B5: the binding result with NME7-AB and with dimeric NME1 was “no binding” throughout.

B6: mouse monoclonal antibody MN-C2 (antibody, V domains shown)
VH: EVQLEESGGGLVKPGGSLKLSCAASGFTFSGYAMSWVRQTPEKRLEWVATISSGGTYIYYPDSVKGRFTISRDNAKNTLYLQMSSLRSEDTAMYYCARLGGDNYYEYFDVWGAGTTVTVSS
VL: DIVITQSTASLGVSLGQRATISCRASKSVSTSGYSYMHWYQQRPGQPPKLLIYLASNLESGVPARFSGSGSGTDFTLNIHPVEEEDAATYYCQHSRELPFTFGGGTKLEIKR
notes: Mouse monoclonal IgG; the printed entries run a few residues into the constant regions
Regarding B6, the binding result in experiment [7] and in experiment [6] was “binds” each time.
